Source: article PMC5935693

Molecular target: XPO1 (human) (human) (UniProt O14980)
Assay: other fluorescence titration; competition differential bleaching: MBP-NES competes with the probe FITC-NESPKI for XPO1, in the presence of excess RanGTP (GSP1 179ter, Q71L); analysed in PALMIST

Sequence of UniProt O14980 (O14980 whole entry): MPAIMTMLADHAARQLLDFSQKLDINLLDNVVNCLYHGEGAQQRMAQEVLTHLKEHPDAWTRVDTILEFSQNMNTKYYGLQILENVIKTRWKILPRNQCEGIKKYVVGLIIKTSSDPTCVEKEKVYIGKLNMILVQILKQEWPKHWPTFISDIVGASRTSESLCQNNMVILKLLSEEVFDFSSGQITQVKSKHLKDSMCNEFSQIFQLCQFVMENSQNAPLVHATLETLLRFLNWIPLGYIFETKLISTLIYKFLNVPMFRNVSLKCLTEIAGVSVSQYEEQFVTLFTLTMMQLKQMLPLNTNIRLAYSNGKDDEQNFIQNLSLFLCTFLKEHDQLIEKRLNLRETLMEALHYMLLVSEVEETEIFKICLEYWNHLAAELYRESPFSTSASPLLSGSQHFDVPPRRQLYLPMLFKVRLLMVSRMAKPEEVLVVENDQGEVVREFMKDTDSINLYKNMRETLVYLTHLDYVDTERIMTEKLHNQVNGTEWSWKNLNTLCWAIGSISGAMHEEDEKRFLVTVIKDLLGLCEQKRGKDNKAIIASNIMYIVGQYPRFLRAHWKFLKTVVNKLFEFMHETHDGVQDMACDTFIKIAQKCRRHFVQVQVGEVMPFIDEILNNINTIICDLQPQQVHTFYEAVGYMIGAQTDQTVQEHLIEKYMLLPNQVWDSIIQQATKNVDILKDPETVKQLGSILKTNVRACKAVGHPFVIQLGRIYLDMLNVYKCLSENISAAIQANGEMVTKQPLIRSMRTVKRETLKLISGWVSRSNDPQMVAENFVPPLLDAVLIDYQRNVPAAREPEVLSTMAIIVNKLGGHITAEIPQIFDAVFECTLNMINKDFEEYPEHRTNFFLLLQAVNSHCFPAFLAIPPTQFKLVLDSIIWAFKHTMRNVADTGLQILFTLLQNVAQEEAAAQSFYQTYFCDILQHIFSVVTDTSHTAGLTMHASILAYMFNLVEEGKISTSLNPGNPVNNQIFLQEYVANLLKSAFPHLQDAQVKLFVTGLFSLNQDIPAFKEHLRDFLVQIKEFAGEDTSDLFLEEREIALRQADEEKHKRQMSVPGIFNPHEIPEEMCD

Substance: MBP-NESTDP (maltose binding protein fused to the putative NES peptide of TDP-43, residues 236-253)
- Kd: 13 µM
